Results as given in patent US20090298769A1 (CLEVELAND CLINIC FOUNDATION, published 2009).

Target: T1, VEGFR-2 of human endothelial cells (HUVEC) (human, UniProt P35968 20-1356)
T1 construct: whole, on cells; Endogenous, detected in cell lysates or by staining; also called VEGF receptor-2
Assay: co-immunoprecipitation (anti-VEGFR-2 IP, anti-integrin β5 blot), HUVEC with or without VEGF

T1 sequence (P35968 20-1356): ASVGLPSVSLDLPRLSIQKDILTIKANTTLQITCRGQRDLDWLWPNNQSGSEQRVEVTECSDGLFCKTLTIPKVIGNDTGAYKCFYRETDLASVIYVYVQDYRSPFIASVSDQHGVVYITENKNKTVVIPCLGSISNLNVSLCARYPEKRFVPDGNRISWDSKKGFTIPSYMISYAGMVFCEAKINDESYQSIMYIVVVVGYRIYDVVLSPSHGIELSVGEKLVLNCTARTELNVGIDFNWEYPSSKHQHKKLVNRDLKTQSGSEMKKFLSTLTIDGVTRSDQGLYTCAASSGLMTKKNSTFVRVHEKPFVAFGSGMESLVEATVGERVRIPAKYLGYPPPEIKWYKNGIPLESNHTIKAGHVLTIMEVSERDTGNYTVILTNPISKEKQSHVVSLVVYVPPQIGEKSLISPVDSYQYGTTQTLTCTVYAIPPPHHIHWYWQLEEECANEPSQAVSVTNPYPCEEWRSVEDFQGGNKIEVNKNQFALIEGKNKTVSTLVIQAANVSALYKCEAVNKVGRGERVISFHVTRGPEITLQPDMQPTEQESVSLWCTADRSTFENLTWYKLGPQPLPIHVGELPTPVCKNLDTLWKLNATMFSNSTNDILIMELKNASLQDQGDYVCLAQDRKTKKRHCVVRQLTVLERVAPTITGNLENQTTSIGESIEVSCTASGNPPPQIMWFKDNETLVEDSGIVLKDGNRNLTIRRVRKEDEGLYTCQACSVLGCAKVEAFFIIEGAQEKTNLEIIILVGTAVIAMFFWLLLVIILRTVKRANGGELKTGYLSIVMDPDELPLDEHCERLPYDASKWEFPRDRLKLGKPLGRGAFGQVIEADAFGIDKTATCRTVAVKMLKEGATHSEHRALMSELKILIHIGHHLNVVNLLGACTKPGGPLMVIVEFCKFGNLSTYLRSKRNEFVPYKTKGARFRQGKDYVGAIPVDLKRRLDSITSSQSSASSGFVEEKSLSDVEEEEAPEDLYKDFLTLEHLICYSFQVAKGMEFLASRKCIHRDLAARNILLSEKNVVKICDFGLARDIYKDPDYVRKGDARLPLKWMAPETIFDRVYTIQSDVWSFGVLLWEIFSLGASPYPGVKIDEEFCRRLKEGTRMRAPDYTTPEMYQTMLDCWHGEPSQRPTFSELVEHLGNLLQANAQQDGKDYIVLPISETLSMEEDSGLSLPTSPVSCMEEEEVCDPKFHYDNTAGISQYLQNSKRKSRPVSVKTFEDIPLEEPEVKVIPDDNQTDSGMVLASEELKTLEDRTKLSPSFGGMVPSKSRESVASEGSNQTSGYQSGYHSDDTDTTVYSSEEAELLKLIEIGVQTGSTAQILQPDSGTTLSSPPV

B1: β5 integrin of HUVEC (receptor, human, UniProt P18084 24-799, looked up)
chain: GLNICTSGSATSCEECLLIHPKCAWCSKEDFGSPRSITSRCDLRANLVKNGCGGEIESPASSFHVLRSLPLSSKGSGSAGWDVIQMTPQEIAVNLRPGDKTTFQLQVRQVEDYPVDLYYLMDLSLSMKDDLDNIRSLGTKLAEEMRKLTSNFRLGFGSFVDKDISPFSYTAPRYQTNPCIGYKLFPNCVPSFGFRHLLPLTDRVDSFNEEVRKQRVSRNRDAPEGGFDAVLQAAVCKEKIGWRKDALHLLVFTTDDVPHIALDGKLGGLVQPHDGQCHLNEANEYTASNQMDYPSLALLGEKLAENNINLIFAVTKNHYMLYKNFTALIPGTTVEILDGDSKNIIQLIINAYNSIRSKVELSVWDQPEDLNLFFTATCQDGVSYPGQRKCEGLKIGDTASFEVSLEARSCPSRHTEHVFALRPVGFRDSLEVGVTYNCTCGCSVGLEPNSARCNGSGTYVCGLCECSPGYLGTRCECQDGENQSVYQNLCREAEGKPLCSGRGDCSCNQCSCFESEFGKIYGPFCECDNFSCARNKGVLCSGHGECHCGECKCHAGYIGDNCNCSTDISTCRGRDGQICSERGHCLCGQCQCTEPGAFGEMCEKCPTCPDACSTKRDCVECLLLHSGKPDNQTCHSLCRDEVITWVDTIVKDDQEAVLCFYKTAKDCVMMFTYVELPSGKSNLTVLREPECGNTPNAMTILLAVVGSILLVGLALLAIWKLLVTIHDRREFAKFQSERSRARYEMASNPLYRKPISTHTVDFTFNKFNKSYNGTVD
notes: whole, on cells; also called integrin β5
binding result: no binding
